In patent EP2388325A1 (RLP AgroScience GmbH, dated 2011):

Columns and labels:
[1] = molecular target: MBP:HA-HC-Pro fusion protein (ZYMV HC-Pro fused to the C-terminus of maltose binding protein, HA-tag between … (zucchini yellow mosaic virus (ZYMV), UniProt P0AEX9 27-396 = MBP)); assay: cell-based or functional assay
[2] = molecular target: the molecule itself; assay: Western blot / Coomassie gel after Ni-NTA purification (self-association)

B1: Trx-cupin-protein-His-protein (A. thaliana cupin protein expressed from pET32a(+)) (other)
chain: MGCIGVVNVTSINPYLTRRSNKPYNSRRPSSMAAAIRAESTEKLGITIEKNPPESKLTQLGVRSWPKWGCPPSKFPWTYSAKETCYLLQGKVKVYPNGSDEGVEIEAGDFVVFPKGMSCTWDVSVAVDKHYQFE
notes: Expressed in BL21 (DE3) codon plus, purified by the His-tag; 34 kDa monomer; also called Tm-cupin-protein-His-protein; Trx-QP-His-protein; not shown: N-terminal pET32a(+) tags: thioredoxin (Trx-tag), 6 X His-tag, S-Tag, enterokinase site; C-terminal 6 X His-tag from pET32a(+)
For B1, the “gelshift (EMSA): binding of 21 bp siRNA-double strands by MBP-HA-HC-Pro, signal intensities (Quantity One)” value [1] was 3 fold and the binding result [2] was “binds”.
